# From patent US20120134979A1, “METHODS AND COMPOSITIONS FOR THE TREATMENT OF SICKLE CELL DISEASE” (priority 2010, published 2012)
# Tests used:
# [1] = test system: WT mice; assay: WT (control) mice treated with PEG-ADA or PSB1115 for 8 weeks; type: in vivo, mouse; settings: chronic PEG-ADA enzyme therapy
# Text: Mice. Berkley sickle cell disease transgenic mice (SCD Tg mice), expressing exclusively human sickle hemoglobin (HbS) were purchased from The Jackson Laboratory Inc (Paszty, C. Transgenic and gene knock-out mouse models of sickle cell anemia and the thalassemias. Curr Opin Hematol 4, 88-93, 1997). C57BL/6 mice used as controls were purchased from Harlan Laboratories. Adenosine receptor deficient mice were obtained from the following sources: A1R-deficient mice (Jurgen Schnermann, NIDDK, NIH); A2AR-deficient mice (Jiang-Fan Chen, Boston University School of Medicine); A2BR-deficient mice (Michael R. Blackburn, University of Texas-Houston Medical School); and A3R-deficient mice (Marlene Jacobson, Merck Research Laboratories). […]
# Mouse organ isolation and histological analysis. Mice were anesthetized and body weight was determined. […] Semiquantification of histological changes was analyzed by Image-Plus, Pro software.
# [2] = test system: SCD Tg mice; assay: Plasma adenosine levels in SCD Tg mice under weekly PEG-ADA; type: in vivo, mouse; settings: weekly injection 2.5 U/week for 8 weeks
# Experimental: Adenosine Analysis. […] B., et al. Effects of (R)-deoxycoformycin (pentostatin) on intrauterine nucleoside catabolism and embryo viability in the pregnant mouse. Teratology 45, 91-103, 1992) with modifications. In brief, 500 μl of 0.6 M cold perchloric acid was added to 500 μl blood on ice, mixed using a vertex mixer and subsequently subject to sonication for 10 seconds with output 6 (W-220F, Heat Systems-Ultrasonic, Inc.). The homogenate was centrifuged at 20,000 g for 10 min at […]. The supernatant (568 μl) was transferred to a new tube and neutralized with 40.9 μl 3 M KHCO3/3.6 N KOH. Phenol red (2 μl of 0.2 mg/ml) was added as indicator. The sample was acidified with 5.7 μl of 1.8 M ammonium dihydrogen phosphate (pH 5.1) and 13.2 μl phosphoric acid (30%). Finally, the sample was centrifuged at 20,000 g for 5 min and the supernatant was transferred to a new tube and stored at −20° C. Before HPLC assay, the sample was thawed on ice, then centrifuged at 20,000 g for 10 minutes. […]
molecule,measurement,setting,value
"PEG-ADA: polyethylene glycol-modified adenosine deaminase, a drug used to lower adenosine concentrations in ADA-deficient humans (protein, UniProt P56658 2-363, looked up, PEGylated) Adenosine deaminase: AQTPAFNKPKVELHVHLDGAIKPETILYYGRKRGIALPADTPEELQNIIGMDKPLSLPEFLAKFDYYMPAIAGCREAVKRIAYEFVEMKAKDGVVYVEVRYSPHLLANSKVEPIPWNQAEGDLTPDEVVSLVNQGLQEGERDFGVKVRSILCCMRHQPSWSSEVVELCKKYREQTVVAIDLAGDETIEGSSLFPGHVKAYAEAVKSGVHRTVHAGEVGSANVVKEAVDTLKTERLGHGYHTLEDATLYNRLRQENMHFEVCPWSSYLTGAWKPDTEHPVVRFKNDQVNYSLNTDDPLIFKSTLDTDYQMTKNEMGFTEEEFKRLNINAAKSSFLPEDEKKELLDLLYKAYGMPSPASAEQCL",effect on kidney histology of control mice,[1],no significant effect
same,Adenosine levels in the plasma at different time points,[2],lowered adenosine to a steady level within two weeks
